Assay results reported in US20050234225A1 (Eli Lilly, published 2005).

Assays:
[1] = molecular target: T1, KDR-alkaline phosphatase (AP) soluble fusion protein (human, UniProt P35968 20-764); test: BIAcore SPR, KDR immobilized
T1 construct: Expressed in NIH 3T3 cells as in Lu et al. 2000; also called KDR-AP; full length KDR-AP; not shown: alkaline phosphatase (AP) fusion partner
Method: The binding kinetics of soluble Fab proteins to KDR were measured by surface plasmon resonance using a BIAcore biosensor (Pharmacia Biosensor). KDR-AP fusion protein was immobilized onto a sensor chip and soluble Fab proteins were injected at concentrations ranging from 1.5 nM to 100 nM. Sensorgrams were obtained at each concentration and were evaluated using a program, BIA Evaluation 2.0, to determine the rate constants kon and koff. Kd was calculated from the ratio of rate constants koff/kon.
Antibody affinity or avidity was determined by BIAcore analysis, as above. The binding kinetics, i.e., the association rate constant (kon) and the dissociation rate constant (koff), of the anti-KDR antibodies were measured and the dissociation constant, Kd, was calculated (Table 4).

[2] = molecular target: T1, KDR-alkaline phosphatase (AP) soluble …; test: direct binding ELISA: Fab on KDR-coated plate, detected with anti-human Fab-HRP, A450
Method: (§1) In a direct binding assay, various amounts of soluble Fab proteins were added to KDR-coated 96-well Maxi-sorp microtiter plates and incubated at RT for 1 h, after which the plates were washed 3 times with PBST. The plates were then incubated at RT for 1 h with 100 μl of a rabbit anti-human Fab antibody-HRP conjugate (Jackson ImunoResearch Laboratory Inc., West Grove, Pa.). The plates were washed and developed following the procedure described above for the phage ELISA. In a competitive KDR/VEGF blocking assay, various amounts of Fab proteins were mixed with a fixed amount of KDR-AP (100 ng) and incubated at RT for 1 h. The mixtures were then transferred to 96-well microtiter plates precoated with VEGF₁₆₅ (200 ng/well) and incubated at RT for an additional 2 h, after which the plates were washed 5 times and the substrate for AP (p-nitrophenyl phosphate, Sigma) was added. Absorbance at 405 nm was measured to quantify the bound KDR-AP molecules (8).
(§2) Clone D2C6 and D2H2 are more efficient binders, followed by clone D1H4 and D1F7. All four Fabs also block KDR binding to immobilized VEGF (FIG. 2B). […] Only clone D1F7 blocks VEGF from binding to Flk-1 (FIG. 2C), with an IC₅₀ of approximately 15 nM.

[3] = molecular target: cell-surface KDR (human, UniProt P35968 20-1356); test: cell-based or functional assay
[4] = molecular target: T1, KDR-alkaline phosphatase (AP) soluble …; test: competitive blocking ELISA: Fab pre-incubated with KDR-AP, then binding of KDR-AP to immobilised VEGF165, A405
Method: FIG. 2 depicts binding to KDR, blocking of KDR/VEGF interaction and blocking of Flk-1/VEGF interaction by human anti-KDR Fab fragments. FIG. 2A: Dose-dependent binding of human anti-KDR Fab to immobilized KDR. FIG. 2B: Inhibition of KDR binding to immobilized VEGF by anti-KDR Fab. FIG. 2C: Inhibition of Flk-1 binding to immobilized VEGF by anti-KDR Fab. Various amounts of Fab proteins were incubated with a fixed amount of KDR-AP (2B) or Flk-1-AP (2C) in solution at RT for 1 h.
as §1, §2

[5] = molecular target: T2, Flk-1-AP soluble fusion protein (murine, UniProt P35918 20-762); test: competitive blocking ELISA: Fab pre-incubated with Flk-1-AP, then binding of Flk-1-AP to immobilised VEGF165, A405
T2 construct: Soluble fusion protein from NIH 3T3 cells; also called fetal liver kinase 1; not shown: alkaline phosphatase (AP) fusion partner

[6] = molecular target: T1, KDR-alkaline phosphatase (AP) soluble …; test: competitive blocking ELISA: antibody pre-incubated with KDR-AP, then binding of KDR-AP to immobilised VEGF165, A405
Method: (§3) FIG. 6 depicts binding to KDR and blocking of KDR/VEGF interaction by human anti-KDR antibodies. FIG. 6A: Dose-dependent binding of anti-KDR to immobilized KDR. Various amounts of antibodies were incubated at RT for 1 h in 96-well plates coated with KDR FIG. 6B: Inhibition of binding of KDR to immobilized VEGF by human anti-KDR antibodies. Various amounts of the antibodies were incubated with a fixed amount of KDR-AP in solution at RT for 1 hr.
The efficacy of the anti-KDR antibodies for blocking KDR from binding to VEGF was measured with a competition assay. Various amounts of antibodies were mixed with a fixed amount of KDR-AP (100 ng) and incubated at RT for 1 h. The mixtures were then transferred to 96-well microtiter plates precoated with VEGF₁₆₅ (200 ng/well) and incubated at RT for an additional 2 h, after which the plates were washed 5 times and the substrate for AP (p-nitrophenyl phosphate, Sigma) was added, followed by reading the absorbance at 405 nm to quantify the bound KDR-AP molecules. […] The IC₅₀ is approximately 0.8 to 1.0 nM for all three antibodies.

[7] = molecular target: T1, KDR-alkaline phosphatase (AP) soluble …; test: direct binding ELISA: antibody on KDR-coated plate, detected with anti-human IgG Fc-HRP, A450
Method: as §3
Anti-KDR antibodies were assessed for KDR binding and blocking of VEGF binding. In the direct binding assay, various amounts of antibodies were added to KDR-coated 96-well Maxi-sorp microtiter plates (Nunc, Roskilde, Denmark) and incubated at room temperature (RT) for 1 h, after which the plates were washed 3 times with PBS containing 0.1% Tween-20. The plates were then incubated at RT for 1 h with 100 μl of a rabbit anti-human IgG Fc-HRP conjugate (Jackson ImmunoResearch Laboratory Inc., West Grove, Pa.). The plates were washed and developed as above.

[8] = molecular target: T1, KDR-alkaline phosphatase (AP) soluble …; test: BIAcore SPR, KDR immobilized; remark: listed apart in the source

Sequence of cell-surface KDR (P35968 20-1356): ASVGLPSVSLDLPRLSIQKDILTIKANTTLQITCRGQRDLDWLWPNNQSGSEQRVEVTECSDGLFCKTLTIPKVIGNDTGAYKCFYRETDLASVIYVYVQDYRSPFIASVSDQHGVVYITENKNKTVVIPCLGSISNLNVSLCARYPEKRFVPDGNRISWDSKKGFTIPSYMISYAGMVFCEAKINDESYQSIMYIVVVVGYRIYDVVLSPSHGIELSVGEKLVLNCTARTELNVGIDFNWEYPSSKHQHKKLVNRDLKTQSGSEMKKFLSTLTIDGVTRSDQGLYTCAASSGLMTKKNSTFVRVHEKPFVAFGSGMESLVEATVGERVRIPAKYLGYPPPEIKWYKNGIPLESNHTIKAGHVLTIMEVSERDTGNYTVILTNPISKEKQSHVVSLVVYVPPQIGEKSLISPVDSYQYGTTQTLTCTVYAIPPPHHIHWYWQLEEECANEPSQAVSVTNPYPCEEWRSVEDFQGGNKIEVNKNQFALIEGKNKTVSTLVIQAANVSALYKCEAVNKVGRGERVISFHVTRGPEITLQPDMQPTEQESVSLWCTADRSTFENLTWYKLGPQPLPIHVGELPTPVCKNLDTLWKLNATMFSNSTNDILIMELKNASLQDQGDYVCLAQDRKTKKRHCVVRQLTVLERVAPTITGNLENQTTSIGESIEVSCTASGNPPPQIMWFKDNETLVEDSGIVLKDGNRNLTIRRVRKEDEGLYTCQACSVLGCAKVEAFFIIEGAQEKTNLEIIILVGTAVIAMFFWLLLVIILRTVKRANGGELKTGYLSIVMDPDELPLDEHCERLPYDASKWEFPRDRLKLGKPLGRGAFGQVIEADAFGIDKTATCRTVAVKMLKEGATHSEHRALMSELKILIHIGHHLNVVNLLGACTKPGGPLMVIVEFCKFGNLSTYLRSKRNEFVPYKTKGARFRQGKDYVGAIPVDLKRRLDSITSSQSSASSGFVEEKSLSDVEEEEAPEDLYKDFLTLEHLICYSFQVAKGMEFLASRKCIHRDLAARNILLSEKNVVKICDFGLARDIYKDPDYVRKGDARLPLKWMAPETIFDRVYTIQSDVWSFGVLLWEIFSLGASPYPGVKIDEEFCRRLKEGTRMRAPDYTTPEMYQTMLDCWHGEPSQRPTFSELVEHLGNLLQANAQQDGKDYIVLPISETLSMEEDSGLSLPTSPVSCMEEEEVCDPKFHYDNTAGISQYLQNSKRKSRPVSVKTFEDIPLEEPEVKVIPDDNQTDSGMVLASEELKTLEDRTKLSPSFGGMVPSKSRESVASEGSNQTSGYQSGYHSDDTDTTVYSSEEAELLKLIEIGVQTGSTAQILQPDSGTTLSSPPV
T1 sequence (P35968 20-764): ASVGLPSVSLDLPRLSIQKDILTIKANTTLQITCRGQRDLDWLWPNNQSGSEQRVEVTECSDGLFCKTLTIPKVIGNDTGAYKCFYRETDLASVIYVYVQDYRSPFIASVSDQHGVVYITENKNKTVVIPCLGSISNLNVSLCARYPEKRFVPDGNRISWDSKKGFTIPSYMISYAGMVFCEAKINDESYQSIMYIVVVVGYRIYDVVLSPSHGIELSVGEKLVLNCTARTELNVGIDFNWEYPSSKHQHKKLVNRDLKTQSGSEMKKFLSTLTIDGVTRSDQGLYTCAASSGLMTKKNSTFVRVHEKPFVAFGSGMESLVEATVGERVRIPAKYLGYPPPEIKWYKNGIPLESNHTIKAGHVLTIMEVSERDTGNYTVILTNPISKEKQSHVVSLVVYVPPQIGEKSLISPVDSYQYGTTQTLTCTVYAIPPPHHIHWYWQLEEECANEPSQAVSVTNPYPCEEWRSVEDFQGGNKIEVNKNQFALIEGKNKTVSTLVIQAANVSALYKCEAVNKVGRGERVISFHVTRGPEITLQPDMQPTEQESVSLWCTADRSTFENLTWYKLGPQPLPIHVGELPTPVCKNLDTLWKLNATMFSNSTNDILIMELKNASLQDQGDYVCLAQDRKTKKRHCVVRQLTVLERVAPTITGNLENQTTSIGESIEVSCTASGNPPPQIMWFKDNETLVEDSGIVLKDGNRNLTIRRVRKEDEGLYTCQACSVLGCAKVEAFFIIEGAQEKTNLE
T2 sequence (P35918 20-762): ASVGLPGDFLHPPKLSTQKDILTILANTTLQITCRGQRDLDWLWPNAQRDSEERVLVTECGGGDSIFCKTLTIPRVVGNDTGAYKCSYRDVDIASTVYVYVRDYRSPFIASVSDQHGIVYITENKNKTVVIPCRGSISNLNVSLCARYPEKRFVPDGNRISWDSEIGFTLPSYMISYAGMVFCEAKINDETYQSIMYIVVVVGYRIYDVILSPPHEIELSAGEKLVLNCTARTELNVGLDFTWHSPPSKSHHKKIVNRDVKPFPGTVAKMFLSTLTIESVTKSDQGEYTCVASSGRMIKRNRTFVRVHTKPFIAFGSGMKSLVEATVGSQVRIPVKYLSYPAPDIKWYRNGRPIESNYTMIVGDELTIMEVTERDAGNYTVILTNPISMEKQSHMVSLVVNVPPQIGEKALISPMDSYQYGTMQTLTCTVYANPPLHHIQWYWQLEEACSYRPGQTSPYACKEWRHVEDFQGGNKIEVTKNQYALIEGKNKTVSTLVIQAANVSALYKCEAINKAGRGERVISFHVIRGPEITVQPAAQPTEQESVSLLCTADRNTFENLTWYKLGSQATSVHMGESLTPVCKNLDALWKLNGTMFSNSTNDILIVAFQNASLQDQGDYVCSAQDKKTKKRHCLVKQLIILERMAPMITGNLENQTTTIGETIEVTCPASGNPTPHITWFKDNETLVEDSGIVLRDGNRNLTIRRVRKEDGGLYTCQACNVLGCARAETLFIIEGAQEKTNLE

Row | Kd [1] | koff [1] | kon [1] | EC50 (read off the curve) [2] | EC50 of inhibition of VEGF-stimulated [3H]-TdR incorporation in HUVEC [3] | IC50 (read off the curve) [4] | binding result [5] | IC50 (read off the curve) [6] | EC50 (read off the curve) [7] | fold increase in overall binding avidity against Hu-1121 Fab [8] | fold improvement in Kd against Hu-2C6 [8] | fold change of Kd against the monovalent Hu-2C6 Fab [8] | Binder
1 | 3600 pM | 0.00055 s⁻¹ | 171000 M⁻¹ s⁻¹ | ~700 pM | ~500 pM | ~3000 pM | no binding (tested: about 60 nM) | – | – | – | – | – | D2C6 Fab (Fab, V domains shown, Soluble human Fab from E. coli HB2151; also called Hu-2C6 Fab; Hu-2C6) VH: EVQLVQSGGGLVKPGGSLRLSCAASGFTFSSYSMNWVRQAPGKGLEWVSSISSSSSYIYYADSVKGRFTISRDNAKNSLYLQMNSLRAEDTAVYYCARVTDAFDIWGQGTMVTVSS VL: EIVMTQSPATLSLSPGERATLSCRASQSVSSYLAWYQQKPGQAPRLLIYDSSNRATGIPARFSGSGSGTDFTLTISSLEPEDFATYYCLQHNTFPPTFGQGTKVEIK
2 | – | – | – | ~1000 pM | ~500 pM | ~2000 pM | no binding (tested: about 60 nM) | – | – | – | – | – | D1H4 Fab (Fab, V domains shown, Soluble human Fab from E. coli HB2151; also called DlH4; Hu-1H4 Fab) VH: EVQLVQSGGGLVKPGGSLRLSCAASGFTFSSYSMNWVRQAPGKGLEWVSSISSSSSYIYYADSVKGRFTISRDNAKNSLYLQMNSLRAEDTAVYYCARVTDAFDIWGQGTMVTVSS VL: QSALTQPASLSGSPGQSITISCAGTTTDLTYYDLVSWYQQHPGQAPKLVIYDGNKRPSGVSNRFSGSKSGNTASLTISGLQAEDEADYYCNSYVSSRFYVFGTGTKVTVL
3 | – | – | – | ~700 pM | ~800 pM | ~2000 pM | no binding (tested: about 60 nM) | – | – | – | – | – | D2H2 Fab (Fab, V domains shown, Soluble human Fab from E. coli HB2151; also called Hu-2H2 Fab) VH: EVQLVQSGGGLVKPGGSLRLSCAASGFTFSSYSMNWVRQAPGKGLEWVSSISSSSSYIYYADSVKGRFTISRDNAKDSLYLQMNSLRAEDTAVYYCARVTDAFDIWGQGTMVTVSS VL: DIQLTQSPSSVSASVGDRVTITCRASQGISSRLAWYQQKPGKAPKLLIYAASSLQTGVPSRFSGSGSGTDFTLTISSLQPEDFATYYCQQANRFPPTFGPGTKVDIK
4 | 50 pM | 2.5e-05 s⁻¹ | 479000 M⁻¹ s⁻¹ | – | – | – | – | ~800 pM | ~300 pM | ~2 fold | – | – | IMC-1121 IgG (antibody, V domains shown) VH: EVQLVQSGGGLVKPGGSLRLSCAASGFTFSSYSMNWVRQAPGKGLEWVSSISSSSSYIYYADSVKGRFTISRDNAKNSLYLQMNSLRAEDTAVYYCARVTDAFDIWGQGTMVTVSS VL: DIQMTQSPSSVSASIGDRVTITCRASQGIDNWLGWYQQKPGKAPKLLIYDASNLDTGVPSRFSGSGSGTYFTLTISSLQAEDFAVYFCQQAKAFPPTFGGGTKVDIK
5 | 110 pM | 3.1e-05 s⁻¹ | 296000 M⁻¹ s⁻¹ | – | – | – | – | – | – | – | 33 fold | – | Hu-1121 Fab (Fab, V domains shown, see also CLM-00007) with new light chains) VH: EVQLVQSGGGLVKPGGSLRLSCAASGFTFSSYSMNWVRQAPGKGLEWVSSISSSSSYIYYADSVKGRFTISRDNAKNSLYLQMNSLRAEDTAVYYCARVTDAFDIWGQGTMVTVSS VL: DIQMTQSPSSVSASIGDRVTITCRASQGIDNWLGWYQQKPGKAPKLLIYDASNLDTGVPSRFSGSGSGTYFTLTISSLQAEDFAVYFCQQAKAFPPTFGGGTKVDIK
6 | 200 pM | 4.3e-05 s⁻¹ | 212000 M⁻¹ s⁻¹ | – | – | – | – | ~700 pM | ~400 pM | – | – | ~18 fold | IMC-2C6 IgG (antibody, V domains shown) VH: EVQLVQSGGGLVKPGGSLRLSCAASGFTFSSYSMNWVRQAPGKGLEWVSSISSSSSYIYYADSVKGRFTISRDNAKNSLYLQMNSLRAEDTAVYYCARVTDAFDIWGQGTMVTVSS VL: EIVMTQSPATLSLSPGERATLSCRASQSVSSYLAWYQQKPGQAPRLLIYDSSNRATGIPARFSGSGSGTDFTLTISSLEPEDFATYYCLQHNTFPPTFGQGTKVEIK
7 | – | – | – | – | ~15000 pM | – | – | – | – | – | – | – | D1F7 Fab (Fab, V domains shown) VH: EVQLVQSGAEVKKPGASVKVSCKASGGTFSSYAISWVRQAPGQGLEWMGGIIPIFGTANYAQKFQGRVTFTADKSTSTAYMELRSLRSDDTAVYYCARGYDYYDSSGVASPFDYWGQGTLVTVSS VL: not shown
